Target: T1, SARS-CoV-2 Omicron BA.1 Spike receptor-binding domain (SARS-CoV-2 Omicron BA.1, strain, biotin on the Avi tag (for phage screening and BLI); not biotinylated for crystallisation)
T1 construct: Spike glycoprotein of SARS-CoV-2, Omicron BA.1, RBD1 (319-514) domain; also called RBD1; BA.1 RBD; not shown: Avi-tag, C-terminal, kept
Assay: BLI; biotinylated monovalent, […]; 25°C; 20 mM HEPES pH 7.4, 150 mM NaCl, 10 mg/mL BSA
Conditions: both partners purified

B1: Nb4 (VHH)
VHH: AVQLQASGGGFVQPGGSLRLSCAASGWAETFGHMGWFRQAPGKEREFVSAIDWWDTVHYYADSVKGRFTISRDNSKNTVYLQMNSLRAEDTATYYCAYWDMDYLQNSIPVDYWGQGTQVTVSS
notes: also called Nb4 monomer; monomeric Nb4
Kd: ~8 nM
